± gives the standard error. This sample holds only a part of the variants without activity.
B1: glmS ribozyme (parent)
chain: AUAAAAGCGCCAGAACUACAGAAAUGUAGUUGACGAGGAGGAGGUUUAUCGAAUUUUCGGCGGAUGCCUCCAAA

Legend:
Settings in all cases: with glucosamine-6-phosphate
glucosamine-6-phosphate [1] = variants of: B1; experiment: self-cleavage kobs at 40 uM GlcN6P; higher = faster cleavage; RNA array
Procedure, shortened: (§1)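 Barcoded glmS ribozyme variants on sequenced MiSeq chips were transcribed in situ by E. coli RNA polymerase and tracked through a hybridised Cy3 probe at 37 °C. Glucosamine-6-phosphate (40 μM to 10 mM) in HEPES/KCl/Mg(OAc)2 buffer was flowed in, and tiles were imaged over ~14 h. Signals were normalised to baseline and to non-cleaving reference variants; per-tile medians were fit to one- or two-exponential decays to give kobs. kcat and KM came from weighted Michaelis–Menten fits across concentrations.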

glucosamine-6-phosphate [2] = variants of: B1; experiment: self-cleavage kobs at 10000 uM GlcN6P; higher = faster cleavage; RNA array
Procedure, shortened: as §1

glucosamine-6-phosphate [3] = variants of: B1; experiment: self-cleavage kobs at 640 uM GlcN6P; higher = faster cleavage; RNA array
Procedure, shortened: as §1

glucosamine-6-phosphate [4] = variants of: B1; experiment: self-cleavage kobs at 2500 uM GlcN6P; higher = faster cleavage; RNA array
Procedure, shortened: as §1

glucosamine-6-phosphate [5] = variants of: B1; experiment: self-cleavage kobs at 160 uM GlcN6P; higher = faster cleavage; RNA array
Procedure, shortened: as §1

Variant	self-cleavage kobs at 40 uM GlcN6P (glucosamine-6-phosphate [1]) [s⁻¹]	self-cleavage kobs at 10000 uM GlcN6P (glucosamine-6-phosphate [2]) [s⁻¹]	self-cleavage kobs at 640 uM GlcN6P (glucosamine-6-phosphate [3]) [s⁻¹]	self-cleavage kobs at 2500 uM GlcN6P (glucosamine-6-phosphate [4]) [s⁻¹]	self-cleavage kobs at 160 uM GlcN6P (glucosamine-6-phosphate [5]) [s⁻¹]
A14C C68G U69A	< 1e-05				
G13C U30G U54G G63U C67U	< 1e-05	< 1e-05			
A12C G51U	< 1e-05		< 1e-05		
A12G G35U C50U	< 1e-05				
G13A A36G G44U A53U	< 1e-05	< 1e-05		< 1e-05	
A12C C16G A36U	< 1e-05	< 1e-05			
G13U C16U C70U	5.86e-05 ± 1.3e-05	0.00165 ± 0.00029			
A14U A52C C71G	< 1e-05		< 1e-05		
G13C U49G	< 1e-05		< 1e-05		< 1e-05
A12U G32A A33U	< 1e-05		< 1e-05		
G13A C50G C58A C70U	6.62e-05 ± 1.6e-05	9.7e-05 ± 2.5e-05		0.000539 ± 6.7e-05	
C11U G29U C50U C71G	4.57e-05 ± 2.1e-05				
G13A U47C C58U C71U	< 1e-05	6.08e-05 ± 1.3e-05			
A12C A33C A39C	< 1e-05				
A12U C70A	8.79e-05 ± 1.1e-05	0.00179 ± 0.00036	0.00047 ± 5.2e-05	0.00049 ± 7e-05	0.000177 ± 2.9e-05
G13C G35C	< 1e-05	< 1e-05		< 1e-05	< 1e-05
A14U G38A U45G G63C	< 1e-05				
A12G C50U	< 1e-05	< 1e-05			< 1e-05
C11U G32U U49A C71A	< 1e-05				
G13A A53U	< 1e-05		7.57e-05 ± 2.4e-05	0.000174 ± 4.1e-05	
G13C G32C U47C	< 1e-05				
G13U G29A G44U U55G	< 1e-05	< 1e-05			
G13C U46G	< 1e-05		< 1e-05		< 1e-05
A14G C34A G38U	< 1e-05				
A12U A42G U47A C68U	0.000117 ± 4.6e-05	0.00634 ± 0.0021			
C11U C16U	6.96e-05 ± 2e-05	0.00196 ± 0.0007	0.000352 ± 9.4e-05	0.00134 ± 0.00058	8.34e-05 ± 2.3e-05

Variant	self-cleavage kobs at 40 uM GlcN6P (glucosamine-6-phosphate [1]) [s⁻¹]	self-cleavage kobs at 10000 uM GlcN6P (glucosamine-6-phosphate [2]) [s⁻¹]	self-cleavage kobs at 640 uM GlcN6P (glucosamine-6-phosphate [3]) [s⁻¹]	self-cleavage kobs at 2500 uM GlcN6P (glucosamine-6-phosphate [4]) [s⁻¹]	self-cleavage kobs at 160 uM GlcN6P (glucosamine-6-phosphate [5]) [s⁻¹]
G13A G37C	< 1e-05	< 1e-05	< 1e-05	< 1e-05	< 1e-05
A12U U47C G60A	< 1e-05	< 1e-05			
G13U U56A G59U	< 1e-05				
A14U G38U G63U	< 1e-05	< 1e-05			
A14U A15G A53G	0.000126 ± 2.3e-05	0.0102 ± 0.0019			
A12U A15U A42G	0.000666 ± 0.00019		0.00157 ± 0.00069	0.00849 ± 0.0038	
C11U C50A C70G	9.07e-05 ± 2.5e-05	5.4e-05 ± 1.6e-05	0.000365 ± 8.8e-05	0.000173 ± 6e-05	
A12C A33G U65C	< 1e-05				
C11U G32C A36G G62A C71G	< 1e-05		< 1e-05		
A12C U31A G32C C34A U47A C71U	< 1e-05	< 1e-05			
C11U G13A A33C A53U	< 1e-05				
G13A A42G A48U	< 1e-05	< 1e-05			
A12C G40A C58U	< 1e-05				< 1e-05
G13U G35U G63C A64U	< 1e-05				
G13C A15U C16G A39C	< 1e-05	< 1e-05			
C11U G13A	< 1e-05	6.97e-05 ± 1.7e-05		3.03e-05 ± 1.4e-05	
C11U U45G C50A	< 1e-05				
A14C G38C G44A G63U C70G	< 1e-05				
A14G A53U C71G	0.000153 ± 2.4e-05		0.000741 ± 0.00014	0.00038 ± 0.0001	
A12U A64G	0.000953 ± 0.00018	0.052 ± 0.015	0.00536 ± 0.0011	0.0169 ± 0.0043	0.0025 ± 0.00063
A12U U57C G59C	< 1e-05		< 1e-05	< 1e-05	
A14G A15C G41U C58U	< 1e-05	< 1e-05			
G13U G32A C50U	< 1e-05	< 1e-05		< 1e-05	
A12C G13A U65C C68U	< 1e-05				
A14G U46G C67A	0.000265 ± 6.3e-05	0.00474 ± 0.0012			
A12U G13U G43A	< 1e-05	< 1e-05			

Variant	self-cleavage kobs at 40 uM GlcN6P (glucosamine-6-phosphate [1]) [s⁻¹]	self-cleavage kobs at 10000 uM GlcN6P (glucosamine-6-phosphate [2]) [s⁻¹]	self-cleavage kobs at 640 uM GlcN6P (glucosamine-6-phosphate [3]) [s⁻¹]	self-cleavage kobs at 2500 uM GlcN6P (glucosamine-6-phosphate [4]) [s⁻¹]	self-cleavage kobs at 160 uM GlcN6P (glucosamine-6-phosphate [5]) [s⁻¹]
A14G G32A U49A	< 1e-05				
A14C A36C C61G	< 1e-05				
A14U C16G G32U G44A A48C C61U U69G	< 1e-05				
A12U U49C	< 1e-05			< 1e-05	
A12C G41U	5.28e-05 ± 7e-06	0.00129 ± 0.00013	0.00028 ± 6.1e-05	0.00034 ± 6.3e-05	7.73e-05 ± 8.9e-06
A14G A33G G59U	< 1e-05				
A12U U30G G51C	< 1e-05		< 1e-05	< 1e-05	
A14G G44U A64U	< 1e-05		< 1e-05	< 1e-05	
A14G C70G	9.61e-05 ± 1.2e-05		0.000614 ± 0.00013	0.0009 ± 0.00022	0.000203 ± 1.9e-05
A14U G35U G44C	< 1e-05	< 1e-05	< 1e-05	< 1e-05	< 1e-05
A14U G41U C68A C70U	< 1e-05				
A12C G63A	< 1e-05	< 1e-05	< 1e-05	< 1e-05	< 1e-05
A14G A15G	0.00218 ± 0.00029	0.109 ± 0.035	0.0134 ± 0.0029	0.0102 ± 0.0027	0.0049 ± 0.0015
A14G U31A	0.00248 ± 0.00049	0.0669 ± 0.024	0.00935 ± 0.0021	0.0146 ± 0.006	0.0027 ± 0.00061
A12G G13C G32U G40A A64C	< 1e-05				
G13A A48U	< 1e-05		< 1e-05		< 1e-05
G13U G35U	< 1e-05	< 1e-05	< 1e-05	< 1e-05	< 1e-05
G13A G44A	< 1e-05				
A12G G62U	< 1e-05		< 1e-05		
A12G G62A	< 1e-05	< 1e-05	< 1e-05		
A12G A14G U30A U46C U49C U57C	< 1e-05	< 1e-05		< 1e-05	
G13A C16G U65G	< 1e-05	3.8e-05 ± 1.6e-05			
A14U A39G G44A C50A C71A	< 1e-05	< 1e-05		< 1e-05	
G13C C50G G63A C70G	0.000201 ± 7.2e-05	0.000144 ± 4.2e-05			
A14C G59C	< 1e-05	< 1e-05	< 1e-05		< 1e-05
G13C U30C A36G G41C C70A	< 1e-05	< 1e-05	< 1e-05	< 1e-05	< 1e-05

Variant	self-cleavage kobs at 40 uM GlcN6P (glucosamine-6-phosphate [1]) [s⁻¹]	self-cleavage kobs at 10000 uM GlcN6P (glucosamine-6-phosphate [2]) [s⁻¹]	self-cleavage kobs at 640 uM GlcN6P (glucosamine-6-phosphate [3]) [s⁻¹]	self-cleavage kobs at 2500 uM GlcN6P (glucosamine-6-phosphate [4]) [s⁻¹]	self-cleavage kobs at 160 uM GlcN6P (glucosamine-6-phosphate [5]) [s⁻¹]
A12G G44C C67G	< 1e-05	0.000225 ± 4.3e-05			
G13A A15C A33U G35A C58A	< 1e-05				
G13A A14U C50G C68U	8.53e-05 ± 1.7e-05	0.000103 ± 1.5e-05	0.000187 ± 4.7e-05	0.000455 ± 0.00016	
A14C G60U	< 1e-05	< 1e-05	< 1e-05		< 1e-05
A14U G29U G44U U56A	< 1e-05				
A12G A53U C58U	< 1e-05				
C11U G35A	< 1e-05	< 1e-05	< 1e-05	< 1e-05	< 1e-05
C11U G35C	< 1e-05				
A14U G41C G43A G63U C67A C70A	< 1e-05	< 1e-05			
A14U G62A	< 1e-05	< 1e-05	< 1e-05	< 1e-05	
G13U G59U	< 1e-05	< 1e-05	< 1e-05		< 1e-05
G13A G63A	< 1e-05	< 1e-05			< 1e-05
A12G G40C G43C	< 1e-05	< 1e-05	< 1e-05		
A14G U54G G66A	0.000476 ± 0.00011	0.0163 ± 0.0061			
G13A A15U A33U G37U U46C U49A	< 1e-05			< 1e-05	
A12C U49A	< 1e-05				< 1e-05
A14G G44C C61A C68G	< 1e-05				
A14C U31G U47G	0.00012 ± 1.8e-05	0.00313 ± 0.00068			
C11U G37U G43U G63U	< 1e-05	< 1e-05		< 1e-05	
A12C G35U U47C A48U	< 1e-05	< 1e-05	< 1e-05		
A12C U31A C34U A36C A52G C58A G63U	< 1e-05	< 1e-05			
A14U C16U	0.00025 ± 3.2e-05	0.00789 ± 0.001	0.00297 ± 0.00042	0.00183 ± 0.0004	0.000555 ± 0.00011
G13C A39U G59U	< 1e-05				
A12U C50G G51C	< 1e-05				
